B1: MBP-Vac17(H) [budding yeast] / Strep II-Myo2(1150–1567) [budding yeast] (parent complex)
chain 1: MATQALEDITERLLIRSQEAILQLDLWIQRQQRSSICQTTDQESLDKLSQQYNQYMSQLNSLYVRSESVRDKLSKEQQRRLITEDNEHQRIEDLVREFQDITLRLNELA
chain 2: GVNATQINEELYRLLEDTEILNQEITEGLLKGFEVPDAGVAIQLSKRDVVYPARILIIVLSEMWRFGLTKQSESFLAQVLTTIQKVVTQLKGNDLIPSGVFWLANVRELYSFVVFALNSILTEETFKNGMTDEEYKEYVSLVTELKDDFEALSYNIYNIWLKKLQKQLQKKAINAVVISESLPGFSAGETSGFLNKIFANTEEYTMDDILTFFNSIYWCMKSFHIENEVFHAVVTTLLNYVDAICFNELIMKRNFLSWKRGLQLNYNVTRLEEWCKTHGLTDGTECLQHLIQTAKLLQVRKYTIEDIDILRGICYSLTPAQLQKLISQYQVADYESPIPQEILRYVADIVKKEAALSSSGNDSKGHEHSSSIFITPETGPFTDPFSLIKTRKFDQVEAYIPAWLSLPSTKRIVDLVAQ

Variants of: B1
Assay: pull-down; Strep II-Myo2 tail co-expressed with MBP-Vac17(H) and immobilized on Strep-Tactin beads; normalized to Vac17 and Myo2 input levels; parent: 1; read off a plot

| ratio to parent | Variant |
| --- | --- |
| ~0.4 | chain 2 GVNATQINEELYRLLEDTEILNQEITEGLLKGFEVPDAGVAIQLSKRDVVYPARILIIVLSEMWRFGLTKQSESFLAQVLTTIQKVVTQLKGNDLIPSGVFWLANVRELYSFVVFALNSILTEETFKNGMTDEEYKEYVSLVTELKDDFEALSYNIYNIWLKKLQKQLQKKAINAVVISESLPGFSAGRTSGFLNKIFANTEEYTMDDILTFFNSIYWCMKSFHIENEVFHAVVTTLLNYVDAICFNELIMKRNFLSWARGLQLNYNVTRLEEWCKTHGLTDGTECLQHLIQTAKLLQARKYTIEDIDILRGICYSLTPAQLQKLISQYQVADYESPIPQEILRYVADIVKKEAALSSSGNDSKGHEHSSSIFITPETGPFTDPFSLIKTRKFDQVEAYIPAWLSLPSTKRIVDLVAQ [chain 2 E189R, chain 2 K259A, chain 2 V299A] |
| ~0.59 | chain 2 GVNATQINEELYRLLEDTEILNQEITEGLLKGFEVPDAGVAIQLSKRDVVYPARILIIVLSEMWRFGLTKQSESFLAQVLTTIQKVVTQLKGNDLIPSGVFWLANVRELYSFVVFALNSILTEETFKNGMTDEEYKEYVSLVTELKDDFEALSYNIYNIWLKKLQKQLQKKAINAVVISESLPGFSAGETSGFLNKIFANTEEYTMDDILTFFNSIYWCMKSFHIENEVFHAVVTTLLNYVDAICFNELIMKRNFLSWARGLQLNYNVTRLEEWCKTHGLTDGTECLQHLIQTAKLLQVEKYTIEDIDILRGICYSLTPAQLQKLISQYQVADYESPIPQEILRYVADIVKKEAALSSSGNDSKGHEHSSSIFITPETGPFTDPFSLIKTRKFDQVEAYIPAWLSLPSTKRIVDLVAQ [chain 2 K259A, chain 2 R300E] |

From publication doi:10.1101/2025.03.24.645041 (2025)
